Measurements published in patent US20220340684A1.

What was measured:
[1] = target: Recombinant human TRIM21 PRYSPRY domain (His-tagged, expressed in E. coli BL21 (DE3)) (human) (UniProt P19474); test: SPR (ProteON XPR36), antibody amine-coupled to GLC chip, TRIM21 PRYSPRY as analyte, Langmuir 1:1
[2] = target: Recombinant human TRIM21 PRYSPRY domain (His-tagged, expressed in E. coli BL21 (DE3)) (human) (UniProt P19474); test: SPR, antibody immobilized, TRIM21 PRYSPRY as analyte
[3] = target: Recombinant human TRIM21 PRYSPRY domain (His-tagged, expressed in E. coli BL21 (DE3)) (human) (UniProt P19474); test: SPR, antibody immobilized, TRIM21 PRYSPRY as analyte; the column's head prints (M), the text gives 125 nM
[4] = target: Human TRIM21 (endogenous, cytosolic, in moDC and HeLa cells) (human) (UniProt P19474); test: cell-based or functional assay
Human TRIM21 (endogenous, cytosolic, in moDC and HeLa cells) (human), sequence (P19474 whole entry): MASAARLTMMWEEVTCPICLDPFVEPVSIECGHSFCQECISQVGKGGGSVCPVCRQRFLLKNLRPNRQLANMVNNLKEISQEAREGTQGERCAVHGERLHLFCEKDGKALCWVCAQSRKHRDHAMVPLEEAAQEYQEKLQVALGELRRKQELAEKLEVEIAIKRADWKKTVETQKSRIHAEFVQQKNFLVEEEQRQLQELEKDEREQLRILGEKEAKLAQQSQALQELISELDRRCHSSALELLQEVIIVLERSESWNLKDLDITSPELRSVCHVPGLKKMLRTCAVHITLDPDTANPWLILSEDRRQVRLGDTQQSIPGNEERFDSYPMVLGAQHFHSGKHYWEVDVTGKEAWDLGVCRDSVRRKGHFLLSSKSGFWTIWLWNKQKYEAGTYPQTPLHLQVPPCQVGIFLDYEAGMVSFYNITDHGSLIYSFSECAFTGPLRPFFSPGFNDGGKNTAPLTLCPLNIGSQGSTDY

Recombinant human TRIM21 PRYSPRY domain (His-tagged, expressed in E. coli BL21 (DE3)) (human), sequence (P19474 287-475): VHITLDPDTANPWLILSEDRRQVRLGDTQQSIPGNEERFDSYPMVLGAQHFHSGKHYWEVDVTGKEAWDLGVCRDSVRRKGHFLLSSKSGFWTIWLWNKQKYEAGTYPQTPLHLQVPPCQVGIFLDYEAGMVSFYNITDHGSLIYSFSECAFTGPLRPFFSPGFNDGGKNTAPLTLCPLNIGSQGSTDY

Substance | Kd [2] [µM] | further results
Fc-unmodified human IgG1 (anti-DEC205, variable domains of 3G9-2D2, wildtype human IgG1 constant regions) (antibody) |  | Kd [1]: 0.0473 µM
V1 chimeric IgG1 (9C12 variable domains, human IgG1 with 256P/434R/436F/440I Fc) (antibody) | 0.0108 | 
V2 chimeric IgG1 (9C12 variable domains, human IgG1 with 256P/433T/436F/440I Fc) (antibody) | 1.62 | 
V3 chimeric IgG1 (9C12 variable domains, human IgG1 with 256P/433T/434R/440I Fc) (antibody) | 0.000211 | 
Wildtype chimeric IgG1 (anti-Ad5 hexon, mouse 9C12 variable domains, wildtype human IgG1 constant regions) (antibody) |  | Kd [3]: 0.125 µM; IC50 of ADIN of Ad5-eGFP infection in moDCs, MOI 400 [4]: 0.003 µM; IC50 of antibody-dependent intracellular neutralization (ADIN) of Ad5-eGFP infection in HeLa cells, MOI 1.2 [4]: 0.9 µM

More lines, in order of falling Kd [2], values ahead:

Kd [2] [µM] | Substance | further results
0.0235 | V5 chimeric IgG1 (9C12 variable domains, human IgG1 with 433T/434R/436F/440I Fc, Thr at 256) (antibody) | 
0.000276 | V4 chimeric IgG1 (9C12 variable domains, human IgG1 with 256P/433T/434R/436F Fc) (antibody) | 
